Patent EP0669979B1 (GENENTECH, INC., dated 2005)

T1: C-C chemokine receptor 1 (C-C CKR-1) (human, UniProt P32246 1-355)
T1 construct: Transiently expressed from pRK5 in human embryonic kidney 293 cells; also called JOSH1; cloned C-C CKR-1
T1 sequence: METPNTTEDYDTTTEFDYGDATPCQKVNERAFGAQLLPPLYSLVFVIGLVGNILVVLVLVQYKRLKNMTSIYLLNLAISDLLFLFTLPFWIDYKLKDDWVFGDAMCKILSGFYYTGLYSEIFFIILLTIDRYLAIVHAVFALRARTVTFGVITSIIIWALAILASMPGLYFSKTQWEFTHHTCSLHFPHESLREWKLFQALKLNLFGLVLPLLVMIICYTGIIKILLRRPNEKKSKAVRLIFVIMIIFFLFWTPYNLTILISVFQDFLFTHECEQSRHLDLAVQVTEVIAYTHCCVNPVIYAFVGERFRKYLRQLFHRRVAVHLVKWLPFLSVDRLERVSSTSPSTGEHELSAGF

B1: RANTES (Regulated on Activation, Normal T Expressed and Secreted) (ligand, UniProt P13501 24-91, looked up)
chain: SPYSSDTTPCCFAYIARPLPRAHIKEYFYTSGKCSNPAVVFVTRKNRQVCANPEKKWVREYINSLEMS
modifications: ends and bridges not checked; also: 125I-labeled where used as tracer
B2: murine MIP-1α (ligand, UniProt P10855 24-92, looked up)
chain: APYGADTPTACCFSYSRKIPRQFIVDYFETSSLCSQPGVIFLTKRNRQICADSKETWVQEYITDLELNA
B3: human MIP-1β (HuMIP-1β) (ligand, UniProt P13236 24-92, looked up)
chain: APMGSDPPTACCFSYTARKLPRNFVVDYYETSSLCSQPAVVFQTKRSKQVCADPSESWVQEYVYDLELN
notes: also called HuMIP-1b; MIP-lb
B4: human MIP-1α (HuMIP-1α) (ligand, UniProt P10147 24-92, looked up)
chain: SLAADTPTACCFSYTSRQIPQNFIADYFETSSQCSKPGVIFLTKRSRQVCADPSEEWVQKYVSDLELSA
modifications: ends and bridges not checked; also: 125I-iodinated (chloroglycoluril) where used as tracer
notes: also called HuMIP-1a

Key:
[1] = molecular target: T1, C-C chemokine receptor 1 (C-C CKR-1); assay: heterologous displacement of 125I-HuMIP-1α on 293 cells expressing C-C CKR-1, Scatchard analysis
[2] = molecular target: T1, C-C chemokine receptor 1 (C-C CKR-1); assay: 125I-HuMIP-1α displaced by unlabeled HuMIP-1α on 293 cells expressing C-C CKR-1, 4 °C, Scatchard analysis
[3] = molecular target: T1, C-C chemokine receptor 1 (C-C CKR-1); assay: heterologous displacement of 125I-RANTES by unlabeled HuMIP-1α on 293 cells expressing C-C CKR-1, Scatchard analysis

| Binder | Kd [1] [nM] | Kd [2] [nM] | Kd [3] [nM] |
| --- | --- | --- | --- |
| B1 | 468 |  |  |
| B2 | 4.2 |  |  |
| B3 | 232 |  |  |
| B4 |  | 5.1 | 7.6 |
